The values below come from PMC6981274, “Structure and mechanism of a Type III CRISPR defence DNA nuclease activated by cyclic oligoadenylate” (Nature Communications, 2020).

One data set concerns the target T1, Can1 wild type (UniProt Q53W14 =ME+3-636+=LE, internal_change).
T1 sequence: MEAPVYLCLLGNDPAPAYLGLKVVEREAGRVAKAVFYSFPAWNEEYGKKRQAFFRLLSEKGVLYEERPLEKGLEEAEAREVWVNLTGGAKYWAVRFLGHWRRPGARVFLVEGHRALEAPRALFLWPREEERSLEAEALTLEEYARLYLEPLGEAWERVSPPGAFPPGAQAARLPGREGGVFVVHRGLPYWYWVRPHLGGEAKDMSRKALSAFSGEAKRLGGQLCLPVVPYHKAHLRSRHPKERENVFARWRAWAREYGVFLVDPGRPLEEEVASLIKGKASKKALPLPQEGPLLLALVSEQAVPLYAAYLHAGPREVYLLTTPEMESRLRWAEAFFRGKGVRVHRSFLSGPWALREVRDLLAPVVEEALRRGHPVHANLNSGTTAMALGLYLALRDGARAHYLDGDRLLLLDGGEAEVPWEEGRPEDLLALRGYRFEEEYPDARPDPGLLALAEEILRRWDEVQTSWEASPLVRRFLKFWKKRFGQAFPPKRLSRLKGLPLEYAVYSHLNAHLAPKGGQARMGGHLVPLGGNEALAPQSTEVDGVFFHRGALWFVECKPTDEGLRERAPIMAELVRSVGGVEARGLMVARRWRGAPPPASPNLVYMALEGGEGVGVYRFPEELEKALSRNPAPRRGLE
Briefly: SAXS; EMSA: 100 nM 32P-cA4, 20 mM MES pH 6.5, 100 mM NaCl, 1 mM EDTA, 5 mM MnCl2, 2 uM BSA, 10 min at room temperature; 15% native acrylamide, 1x TBE. The following applies: protein: recombinant; tags: N-terminal His tag removed by TEV; C-terminal Leu-Glu added by cloning; cyclic single strand of 4 nt. For orientation: Mobility shift assays separate free from complexed probe on a gel.

The next data set addresses T2, Can1 SeMet (UniProt Q53W14 =ME+3-636+=LE, internal_change).
T2 sequence: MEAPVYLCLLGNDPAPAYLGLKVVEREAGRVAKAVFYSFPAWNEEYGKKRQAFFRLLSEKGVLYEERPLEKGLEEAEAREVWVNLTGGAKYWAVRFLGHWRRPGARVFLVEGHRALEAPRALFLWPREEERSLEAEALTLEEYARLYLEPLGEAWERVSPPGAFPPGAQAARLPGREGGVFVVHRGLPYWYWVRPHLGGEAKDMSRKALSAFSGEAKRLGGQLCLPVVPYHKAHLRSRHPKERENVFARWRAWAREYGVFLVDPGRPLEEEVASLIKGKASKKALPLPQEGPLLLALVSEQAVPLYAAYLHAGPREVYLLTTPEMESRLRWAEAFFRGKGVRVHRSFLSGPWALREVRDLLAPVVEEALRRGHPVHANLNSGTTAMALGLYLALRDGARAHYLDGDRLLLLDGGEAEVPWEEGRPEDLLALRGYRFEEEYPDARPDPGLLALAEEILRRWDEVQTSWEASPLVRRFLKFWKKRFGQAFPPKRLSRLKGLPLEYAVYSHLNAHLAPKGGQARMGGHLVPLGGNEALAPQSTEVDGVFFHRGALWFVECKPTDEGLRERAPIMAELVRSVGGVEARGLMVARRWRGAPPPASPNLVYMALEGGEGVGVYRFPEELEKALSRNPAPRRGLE
Briefly: X-ray crystallography (1.83 A); EMSA: 100 nM 32P-cA4, 20 mM MES pH 6.5, 100 mM NaCl, 1 mM EDTA, 5 mM MnCl2, 2 uM BSA, 10 min at room temperature; 15% native acrylamide, 1x TBE. To be noted: protein: recombinant; tags: N-terminal His tag removed by TEV; C-terminal Leu-Glu added by cloning; cyclic single strand of 4 nt.

B1: cA4 (cyclic tetra-adenylate), unlabelled (structured_RNA)
RNA: AAAA
modifications: cyclic oligoribonucleotide, no free ends
For the molecule B1, the binding result with Can1 wild type and with Can1 SeMet was “binds” in each case.
